Measurements reported in the NTF2 design screens of Basanta et al. (2020).

experiment: protease stability score; higher = more stable; yeast display proteolysis, trypsin and chymotrypsin;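 also: relative to predicted unfolded state with 0 unfolded-like and 1 meaning tenfold more protease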

Q: With “SEDEEIQKKFWEEFMKALHTGDWHTLEKLLDPHVRYLVGEKHVHGRKKLEMEIRHLGVTNIEMHLHIESEERQGNKIILNGEFRRRINGVEIKTRAILILIKIDGRWVIDTEFIE” as the sequence, how does the protease stability score read?
A: 2.05

Q: For “SEERKELKDIADEIFERHLTGDWKTFLRLADPNVRLQVNGKDIHGREEVVRWLNEIRYHHLTIHDRTVVDGVVISDVEEDGQVNGQKSRYRVHYVFVVVDGRFKSIHVTIT”, which protease stability score is on record?
A: 1.3

Q: With “DEDEREAERSIREELEYTRTGDEDFIKRLADPHVKLNIDGQRHHGRETVVKIMVEARIKDLHIERLTVIDGRVHMRGRMEGNFNGRDTEVEVHIKLKKVNGQWHVRDFEIR” as the sequence, how does the protease stability score read?
A: 1.14

Q: Which protease stability score does the source give for “SEKEKILEHFSELWYRLFRTGDEDTLHRMFDPDYRLIYGDKESHGRRLVWIMIAELRIHDWRLRRYHVQGDKAHFDVEVTGEFNGRREHNREEIIITVIDGRATEVEIRID” here?
A: 0.54

Q: For “DHWEHVERMYSHEVLHMLETGDEHKFNKLMDPNARIDVGEWDLIGMHRVSHALKEVRDELGIKHSEVKHVDIFNGRVEIHTEVHVDGRSHKVRIEVIYVNGRTKWMRYEQH”, which protease stability score is on record?
A: 0.717

Q: Which protease stability score does the source give for “SEDHEAAHDMLELLRHMELTGDENSLMDLLDPNAKNDVDGKVSVGREEWLRMVHFLLTRFDHIKSIEVEESRHIDGRLNYQTRLRGTVNGQDVELRTEWIVIKVNGKWFLHKVRFV” here?
A: 1.24

Q: For “DEREELAEHMIRLLTERLITGDERIEQELADPNVRFELDINGKSVDTHGMENVLEWIRKWYEHFGVTNFDLRIHRIRVIGEYAHNDGEIIQGDKTRRVHIRMVVINGRVHEVIIHVR”, which protease stability score is on record?
A: 1.22

Q: For “DDTRELSKHWHERWLHAHETGDEELLLSLLDPHVRLEVGDKHLIGRDKLKWHMEEEIEFFKNAKLHVRRVSIQGNKIEMELEVRIDGVRHEVHIHYDIIDGRITRFEVRIV”, which protease stability score is on record?
A: 0.21

Q: Which protease stability score does the source give for “HEEEEEAERFVKEIIHSWKTGNEDDMHRLVDPNVRLIIGDKTYHGRENFVKHMEEWLQRAGVKHFHLRKVDVFDGKLDIHSEVRQGSDETELHISVEKINGRWRLQLVIIV” here?
A: 1.7

Q: With “DEKTEISEFALELFKESYDTGDEHTINRLADPHYRVVIGDKDLIGMEWLEHVIRHHKERVDHYRDVTVKDIKVIGNKVIADIRSHVHVDGQERDLDIDLVVFKINGRWRIKMIKID” as the sequence, how does the protease stability score read?
A: 1.15

Q: For “DEEREKSELAIKIMKHVWETGDETLKSELFDPNARIHIDGKEIVGREEIEDQLRHIRMHITMFDINSTKFVDGRLEVYLNRRVRLFFDGREIEEEQHIHVVLLKINGRWQLQELEVT”, which protease stability score is on record?
A: 1.36

Q: For “NEDEEKAKRFVKTYVHSLVTGDWKLWSEMADPNMILIYGDKTFIGREHFEEFFRRHIEELRFDSFHVDHVEIQGDKAELESRVSVIINGVERELETNMFLHKVDGRWLLTKFEVH”, which protease stability score is on record?
A: 2.08

Q: With “DEEKEISKKATEILISILRTGDEDVMREYLDPHVRIDFNGKQLHGMDYLWRLLKHMRLRSLDVHSFHFVDGVIEVDSRSDGEVNGQRTDYHFHFIIEKVNGKWWLHKVKFE” as the sequence, how does the protease stability score read?
A: 1.64

Q: For “SEEEHVAKKLSDLILHAWRTGDEDQLSRLMDPHVRMIIGDKHLHGREEVSRWLHDWRRQVDHVEFHVKRFHVQGNKYTNDGHFVVHQGDKETRTDVEIILIVVDGKIHEIRIIIR”, which protease stability score is on record?
A: 2.17

Q: Which protease stability score does the source give for “DEDMELVLKWVHEFAEMFETGNEHELLRMLDPHVRLEYGEKEIHGREDITRFWEEKIRKLGIKHIRVHIRDARIQGEKLHLDTELKLDYNGKTDHERYIIIIIKINGKWSIKSFQVE” here?
A: 1.55

Q: With “DEDKEESEKFFRDMHRAAETGDWREHLRLMDPHVRLVVGEYQHHGRETFEEILTEWFERVDHQELVIRHVRVYDGVADLDGEIIYHYGDKIIFVRYTIHVRKVDGRWRIKHIRIE” as the sequence, how does the protease stability score read?
A: 0.476

Q: Which protease stability score does the source give for “EEWEKAIKFAVKLYKEIMETGDEDMQSHLFDPNVRISVGNKERHGMEEVTKIMTEWRLDDHHVNHVELQGNKVSSDGEINGTFDGRRHRVRIVLIILKVNGVWRIEEVRVI” here?
A: 0.162

Q: For “DEEDELMKEYFELFWRDLLTGNEELLENLVDPHVRVKVGDKEFHGRHLLSKLASDMGVDHIQIEDMRVQGDKLSIDTTVDVNGKRRRMTLRARKVNGRWFFTELEVR”, which protease stability score is on record?
A: 1.5

Q: With “HEEERDLEHWDELLLKSITTGDWRILTKLVDPHARIIILVNGKLITHIGREYVYHLLLRFDHIRTHDFRTNIQGDYIDHHIEGKLHVNGKDMDSHIINHSEKVDGRWTVHTVNIEFI” as the sequence, how does the protease stability score read?
A: 1.22

Q: With “SEEDRFAIEVSEELSRAIETGDEDRLRHLLDPNVKVNVGDKTLHGREEYLHYLRELLRDLGVDVIHIEFQDVRFIGDKLVIDGSLDLRVGDKVIEHKITIIIWKFDGRWVSHSEHIH” as the sequence, how does the protease stability score read?
A: 1.25

Q: With “DEHHEILDHFLHLWIEALHTGDWKLIEKLIDPHAKLRIHQGDKHIEIHGREEVVRREEEWLRRIKNLRLHIDRIEIQGNKFHMEITLHFDGVTVDSRVILFVYDGQIKHIEIRHN” as the sequence, how does the protease stability score read?
A: 2.43

Q: With “TEQMEWVEDIVRILVESINTGDEHVLKEMLDPNVRIHIGDKNVIGMEFIHRWLKEIRIEHLRVEISDVRFIGDKVKVRGRLKLHVDVDGRRHDVSHDVIIVFEKVDGKWFEREDRLL” as the sequence, how does the protease stability score read?
A: 1.23

Q: Which protease stability score does the source give for “SEDEKMTEMALRLFMHTWRTGDEQVFRHLADPDYRLEVNGVEFIGWEQVTELFSRIVKRFDHMHIHLREFDDINGQADVRGTLILIQGDKEIRMETHIISKKFNGRWTHRRVHFH” here?
A: 0.428

Q: For “SEEEEVIDEAIHILEKHMQTGDWRVLRELADPNMRVHVNGRDLHGREQYIRWIEFLLKRVPNLKLDHFVLDHQHVVNGVAHLEGRLTYTINGVIHKTRTHFHIFKFDGQWRLESQSER”, which protease stability score is on record?
A: 0.951

Q: Which protease stability score does the source give for “REEEENMRHFYKLMEHSLHTGDEDTLRRLFDPDARILIDGREHHGMEFILQLLHHIRLRVHDTKIEDIEHQGEWLHMHTRIDIYYNVDGQEVRVDTNVRLHAHKVDGRWFVRSYERG” here?
A: 0.748
